Experimental findings from article PMC7509637 (Advanced Science, 2020) are described below.

Values joined by “and” are separate entries in the source; they are usually repeats but may differ in a detail not shown here. Equal entries are not always repeated. “Also recorded” adds a separate entry of the source.

The target in series [1] is T1, Aβ (Homo sapiens, UniProt P05067).
T1 construct: purchased Anaspec Inc
Put plainly: ThT assay of Aβ with P. aeruginosa biofilm fragments. The following applies: Aβ 50 × 10^−6 M ± biofilm fragments 5 × 10^−6 M (protein content), 37 °C, Figure S14. It is filed as biochemical. As for the experimental part:
P. aeruginosa biofilm fragments were generated by incubating fresh subcultures of bacteria (wild‐type reference strain PAO1) in cation‐adjusted Mueller‐Hinton broth (CAMHB) overnight in a 96‐well plate. After 48 h of incubation, the planktonic bacteria were pipetted out from the culture and replaced with fresh PBS (pH 7.4). The surface pellicle biofilm and ring biofilm attached to the well walls were scooped out and dispersed in PBS. The separated biofilm chunks were purified from the embodied bacteria by vortexing (10 min) with 20 µm glass beads and then repeated centrifugal washing (3 min, 2000 g) with PBS (pH 7.4). The biofilm containing supernatant was collected, concentrated, and adjusted to the concentration of 5 mg mL^−1 in deionized water. The concentration was adjusted with respect to the protein contents of biofilm via the BCA assay. […]
Aβ (Anaspec Inc., purity ≥ 95%) was dissolved in 100 µL of hexafluoro‐2‐propanol (HFIP) and incubated at room temperature for 3 h. […] The ThT fluorescence (excitation: 445 nm/ emission: 485 nm) was recorded at specified time intervals for 50 h. Kinetic parameters (rate constant k, half‐life t 1/2 and lag‐time) were calculated as described.^[ ^94 ^] Briefly, kinetic curves were fitted to a sigmoidal curve =y0+ymax−y0/1+e^−(t−t1/2)k , where y 0 and y max are initial and final ThT fluorescence values, allowing us to calculate lag time = t 1/2 − 2/k.

The next series has as its system adult zebrafish brain. The series is described as follows: IHC for Aβ deposition in brain of adult zebrafish. The settings on record: two days postinjection (so in the source). It is filed as in vivo, zebrafish (AB, Danio rerio).
For series [2], the target named is T1, Aβ. Put plainly: Circular dichroism spectroscopy, secondary structure. The following applies: 37 °C, CD; for β-sheet content: Contin/reference set 4, n = 3; for random coil content: n = 3. As for the experimental part: Solutions of 200 µL, at similar molar ratios as for ThT assay, were prepared and incubated at 37 °C. CD spectra for different samples at 0, 12 and 48 h were measured with a CD spectrophotometer (Jasco) from 190 to 240 nm (1 nm step size). The percentage secondary structure was calculated by the CD data via Dichroweb analysis with parameters of Contin/reference set 4.^[ ^95 ^]
For orientation: Circular dichroism is the unequal absorption of left and right circularly polarised light.

The test system of a further series is Aβ monomers. The series is described as follows: Isothermal titration calorimetry (ITC). It is filed as binding. The settings on record: Aβ 200 × 10^−6 M into 20 × 10^−6 M seeds, 0.1% NH4OH, 25 °C. As for the experimental part: ITC (Malvern MicroCal iTC200) was used to explore the interaction between Aβ monomers and oligomers (Aβo) with FapCS. Sample solutions were degassed at 25 °C while stirring (100 rpm). Aβ (200 × 10^−6 M, 40 µL) was filled into the syringe while FapCS or bLgS (20 × 10^−6 M, 200 µL) were filled in the cell (coin shaped). 0.1% NH4OH buffer solution was used for both solutions. Aβ was injected into the cell at an injection volume of 2 µL at the duration of 4 s and with a spacing of 180 s. First injection was 0.2 µL for 0.4 s duration and a total of 16 injections were programed. The heat exchange was recorded with a Microcal analysis (origin v7) software. The heat of dilution (Aβ against buffer) was subtracted from the interaction heat of samples. The acquired curves were fitted to a sequential binding model and thermodynamic parameters of binding energy (ΔH), free energy (ΔG), and entropic factor (TΔS) were calculated. Aβo for the ITC experiments was prepared by incubating Aβ aqueous solution (200 × 10^−6 M) at 4 °C for 48 h.^[ ^65 ^]

The next series deals with Aβ fibrils. The series is described as follows: AFM of fibrils, FiberApp statistical analysis. The settings on record: compared with the control. As for the experimental part: Aβ incubated in the presence or absence of FapCS, FapC monomers, FapC fibrils or bLgS were subjected to TEM imaging. After incubation for 12 h, a drop of sample was applied on a glow‐discharged carbon‐coated copper grid. After 1 min, the sample was blotted and then negatively stained with uranyl acetate (1%) for 30 s. The dried grid was then imaged with a Technei F20 TEM at 200 kV. For AFM, a drop of sample was placed on freshly cleaved mica surface and rinsed with water after 2 min and dried with pressurized air. The sample was scanned with an AFM (Nanoscope VIII Multimode Scanning Force Microscopes, Bruker), covered with an acoustic hood to minimize the vibrational noise. Images were acquired under the tapping mode with a silicon nitride cantilever (Bruker). AFM images were processed with Nanoscope Analysis 1.5 software to flatten the background and to calculate the statistical parameters.

The subject of another series is adult zebrafish. Put plainly: Cognitive memory function of adult zebrafish (arena 2 avoidance). It is filed as in vivo, zebrafish (AB, Danio rerio). The settings on record: FapCS alone.

Procedure for adult zebrafish brain: Adult zebrafish (10 months) were employed for the study. Prior to microinjection, adult zebrafish were anesthetized by placing them in a beaker filled with ice‐chilled tricaine (0.01% in Holtfreter's buffer) for 20 s. […] The needle penetrated between left and right telencephalon for not more than 1 mm and injection volume was 1 µL. The syringe was washed with ethanol and PBS in between the injections. The injections were made under a stereomicroscope and fish were held in place with forceps. After microinjection, the fish was placed back in the water tank for recovery.
The head of the fish was separated at pectoral fin point with a sharp blade and fixed in paraformaldehyde as described in the “Animal husbandry and ethics statement” section. The fixed heads were dehydrated by dipping in gradual concentration of ethanol, i.e., 20%, 40%, 60%, 80%, and 100% with 10 min at each step. The heads were treated with 20% sucrose overnight, mounted with Tissue Trek OCT mounting medium at −20 °C. The heads were then sectioned into 20 × 10^−6 M thick section with a cryostat. The sections were mounted on a gelatinized glass slide and immunostained with antibodies. The sections were dried, washed thrice in PBS (pH 7.4), and TritonX‐100 (0.05% in PBS) for 5 min each. […] The sections were imaged by a fluorescence microscope and fluorescence intensities were measured from the images with Fiji ImageJ analysis.

With amyloid beta [Aβ], in the series with Aβ [1], the lag time stood at 23 h. The “Aβ deposition in brain (in words)” value with adult zebrafish brain is given as “did not render any deposition in the fish brain”. Besides, the β-sheet content is 28% and 28 ± 9% with Aβ [2] (0 h); 54% and 54 ± 4.5% in the series with Aβ [2] (48 h). Moreover, the figures for the random coil content with Aβ [2] (0 h) and with Aβ [2] (12 h) were 34 ± 6% and 28 ± 1.5%, respectively.

B1: FapCS: FapC seeds obtained by sonication of mature FapC fibrils (P. aeruginosa) (protein)
chain: GNEGGWHPPKPNPQSNNKGGATALVVDTQQNYNNKVSNFGTLNNASVSGSIKDASGNVGVNVAAGDNNQQANAAALASADASFVFGTATASTSVLQSGYGNTLNNYSNPNTASLSNSANNVSGNLGVNVAAGNFNQQKNDLAAAVSNGQYSTAGSAASQTSTGNTTVNSANYAYGGTYVSLKLNADGSYKGTSDQIGDVYLDTWEGQTHPGGSNTGHIDVDSQAQGAKDLNHDGGAFAFKEKGDVDLKGTVSGFIPAIVGFKTPVTNNASLSNSLQNVSGNVGVNIAAGGGNQQSNSLSIAAGCSSCPAGGESLGF
On to B1, for which the “binding to Aβ by ITC (in words)” value in the series on Aβ monomers is “weak but favorable interaction; also recorded: favorable binding with Aβ”. The “rise in fibrillar diameter of Aβ upon seeding vs control” value with Aβ fibrils is given as 37%. In addition, in the series with adult zebrafish, the “cognitive memory function (in words), time not stated” value is “did not induce any cognitive deficiencies”.
